Assay results reported in article PMC4635569 (2015).

Molecular target: human C3d (human, UniProt P01024 1002-1303)
Test: SPR

human C3d, sequence (P01024 1002-1303): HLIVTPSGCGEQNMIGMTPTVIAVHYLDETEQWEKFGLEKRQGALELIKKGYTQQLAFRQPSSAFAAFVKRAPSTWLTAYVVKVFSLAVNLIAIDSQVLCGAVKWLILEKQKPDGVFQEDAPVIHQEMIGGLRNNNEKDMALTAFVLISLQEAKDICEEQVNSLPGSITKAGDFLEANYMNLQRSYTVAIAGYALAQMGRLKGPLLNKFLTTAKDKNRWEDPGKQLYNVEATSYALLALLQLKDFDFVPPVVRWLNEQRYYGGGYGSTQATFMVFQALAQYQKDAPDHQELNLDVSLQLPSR

B1: (D39)PspCN:FH complex (plasma-derived FH) (complex)
chain 1: EDCNELPPRRNTEILTGSWSDQTYPEGTQAIYKCRPGYRSLGNVIMVCRKGEWVALNPLRKCQKRPCGHPGDTPFGTFTLTGGNVFEYGVKAVYTCNEGYQLLGEINYRECDTDGWTNDIPICEVVKCLPVTAPENGKIVSSAMEPDREYHFGQAVRFVCNSGYKIEGDEEMHCSDDGFWSKEKPKCVEISCKSPDVINGSPISQKIIYKENERFQYKCNMGYEYSERGDAVCTESGWRPLPSCEEKSCDNPYIPNGDYSPLRIKHRTGDEITYQCRNGFYPATRGNTAKCTSTGWIPAPRCTLKPCDYPDIKHGGLYHENMRRPYFPVAVGKYYSYYCDEHFETPSGSYWDHIHCTQDGWSPAVPCLRKCYFPYLENGYNQNYGRKFVQGKSIDVACHPGYALPKAQTTVTCMENGWSPTPRCIRVKTCSKSSIDIENGFISESQYTYALKEKAKYQCKLGYVTADGETSGSITCGKDGWSAQPTCIKSCDIPVFMNARTKNDFTWFKLNDTLDYECHDGYESNTGSTTGSIVCGYNGWSDLPICYERECELPKIDVHLVPDRKKDQYKVGEVLKFSCKPGFTIVGPNSVQCYHFGLSPDLPICKEQVQSCGPPPELLNGNVKEKTKEEYGHSEVVEYYCNPRFLMKGPNKIQCVDGEWTTLPVCIVEESTCGDIPELEHGWAQLSSPPYYYGDSVEFNCSESFTMIGHRSITCIHGVWTQLPQCVAIDKLKKCKSSNLIILEEHLKNKKEFDHNSNIRYRCRGKEGWIHTVCINGRWDPEVNCSMAQIQLCPPPPQIPNSHNMTTTLNYRDGEKVSVLCQENYLIQEGEEITCKDGRWQSIPLCVEKIPCSQPPQIEHGTINSSRSSQESYAHGTKLSYTCEGGFRISEENETTCYMGKWSSPPQCEGLPCKSPPEISHGVVAHMSDSYQYGEEVTYKCFEGFGIDGPAIAKCLGEKWSHPPSCIKTDCLSLPSFENAIPMGEKKDVYKAGEQVTYTCATYYKMDGASNVTCINSRWTGRPTCRDTSCVNPPTVQNAYIVSRQMSKYPSGERVRYQCRSPYEMFGDEEVMCLNGNWTEPPQCKDSTGKCGPPPPIDNGDITSFPLSVYAPASSVEYQCQNLYQLEGNKRITCRNGQWSEPPKCLHPCVISREIMENYNIALRWTAKQKLYSRTGESVEFVCKRGYRLSSRSHTLRTTCWDGKLEYPTCAKR
chain 2: ATENEGSTQAATSSNMAKTEHRKAAKQVVDEYIEKMLREIQLDRRKHTQNVALNIKLSAIKTKYLRELNVLEEKSKDELPSEIKAKLDAAFEKFKKDTLKPGEK
Kd: 2000 nM
